In publication PMC10821397, “A New Approach for Preparing Stable High-Concentration Peptide Nanoparticle Formulations” (Pharmaceuticals, 2023):

What was measured:
Assay type in all cases: physicochemical
[1] = Scale-up nanosuspension, particle size by dynamic light scattering; settings: for % Pd: normalized polydispersity, scale-up; for % Pd / Average Radius: 100 mg/mL, DLS; for Average Radius: scale-up batch, average of 10 acquisitions, 25 °C, ± SD
Method: A 4 mL clear glass vial was used as a scale-up container. […] The vial was then placed on a Resodyn LabRAM II Resonant Acoustic mixer and milled at 50 G acceleration for 2 h. The resulting nanosuspension was recovered by using a syringe equipped with an 18 G needle.
(§1) After milling, a 5 μL aliquot of the nanosuspension sample was taken and diluted in 995 μL of D.I. water for analysis using a Wyatt DynaProTM Plate Reader II (Waters Corporation, Santa Barbara, CA, USA) dynamic light scattering instrument. A 30 μL aliquot of the diluted suspension was dispensed into a Corning® low-volume black polystyrene 384-well plate for analysis. The particle size of each sample was reported as an average of 10 acquisitions with an acquisition time of 5 s at 25 °C. Autocorrelation curves were fitted using either the cumulants or regularization method, and the average particle radius and diameters D50 and D90 were obtained and reported along with their standard deviations. The normalized polydispersity (%Pd) was calculated as the polydispersity divided by the estimated hydrodynamic radius from the cumulants fit of the autocorrelation function multiplied by 100.

[2] = Physical stability (monomer content) by size-exclusion chromatography; settings: both formulations (PVP K29-32/SDS, HPC-SL/SDS), 28 days, 4 °C, RT and 37 °C; no higher-order oligomers
Method: An Agilent 1290 Infinity II (Agilent Technologies, Santa Clara, CA, USA) was used for chromatographic analysis. Data were acquired and processed using Empower 3 software (Waters, Milford, MA, USA). For all three peptides (GNE-A, cyclosporin A, and insulin), separations were performed in an Xbridge BEH125 SEC column ([…], 7.8 × 150 mm) for physical stability analysis. Isocratic method was applied in which 80% of the 5 mM phosphate buffer at pH 7 in acetonitrile was used as the mobile phase. The injection volume was 8 μL and the column temperature was 30 °C.

[3] = Nanomilling screen (resonant acoustic milling), particle size by dynamic light scattering; settings: DLS; for Average Radius: nanomilling screen, milled at 100 mg/mL in water, 50 G, 2 h, average of 10 acquisitions, 25 °C, ± SD; for % Pd: normalized polydispersity, screen, 100 mg/mL
Method: A UV-Star clear, flat-bottom 96-well plate was used as a high-throughput mixing container, as described previously. […] Each well plate was sealed with a Thermo Fisher Scientific ALPS 50 V Manual Heat Sealer (Thermo Fisher Scientific Inc., Waltham, MA, USA). Each sealed well plate was then placed on a Resodyn LabRAM II Resonant Acoustic mixer (Resodyn Acoustic Mixers, Butte, MT, USA) and milled at 50 G acceleration for 2 h.
as §1

[4] = Particle size of nanosuspensions on storage (dynamic light scattering); settings: DLS
Method: as §1

[5] = 25% HPC-SL, 1% SDS (wt% to peptide)
[6] = 25% PVP K29-32, 1% SDS (wt% to peptide)
[7] = 25% Pluronic F127 (wt% to peptide)

Insulin (recombinant human) [Insulin Monomer]
average radius of the nanoparticles ([1]; both formulations (HPC-SL/SDS and PVP K29-32/SDS), screen and scale-up batch): 110–130 nm | % Pd [1, 5]: 33.6% | % Pd [1, 6]: 19.9% | Average Radius [1, 5]: 135 ± 14 nm | Average Radius [1, 6]: 121 ± 5 nm | insulin monomer concentration (SEC) [2]: remains quantitative | Average Radius [3, 5]: 130 ± 4 nm | Average Radius [3, 6]: 112 ± 2 nm | Average Radius [3, 7]: 419 ± 24 nm | Average Radius ([3]; 25% Tween 80 (wt% to peptide)): 903 ± 124 nm | % Pd [3, 7]: 14.6% | % Pd ([3]; 25% Tween 80 (wt% to peptide)): Multimodal | particle size on storage ([4]; insulin nanosuspension with HPC-SL/SDS, 4 °C and room temperature, up to 1 month): some particle growth | particle size on storage ([4]; insulin nanosuspension with HPC-SL/SDS, 37 °C, up to 1 month): significant aggregation | particle size on storage ([4]; insulin nanosuspension with PVP K29-32/SDS, 28 days at 4 °C or room temperature): No significant particle size growth | particle size on storage ([4]; insulin nanosuspension with PVP K29-32/SDS, up to a month at 37 °C): remained in the accepted nano-scale range
